The source of these data is patent US9975933B2, “Tumor tissue-penetrating peptide specific to neuropilin and fusion protein having same peptide fused therein” (AJOU UNIVERSITY INDUSTRY-ACADEMIC COOPERATION FOUNDATION, priority 2013, dated 2018).

The target of data set [1] is b1b2 domains (273-586) of neuropilin-1 (Homo sapiens (Human)) (UniProt O14786). In words: SPR, b1b2 domain on chip. (In general: Surface plasmon resonance follows binding to a sensor surface in real time, without labels.)
The target of data set [2] is b1b2 domains (275-595) of neuropilin-2 (Homo sapiens (Human)) (UniProt O60462). In words: SPR, b1b2 domain on chip.
Data set [3] has as its target T1, NRP2-b1b2 (b1b2 domain of neuropilin-2) (Homo sapiens, UniProt O60462).
T1 construct: b1b2 domains (275-595) of neuropilin-2
T1 sequence (O60462 275-595): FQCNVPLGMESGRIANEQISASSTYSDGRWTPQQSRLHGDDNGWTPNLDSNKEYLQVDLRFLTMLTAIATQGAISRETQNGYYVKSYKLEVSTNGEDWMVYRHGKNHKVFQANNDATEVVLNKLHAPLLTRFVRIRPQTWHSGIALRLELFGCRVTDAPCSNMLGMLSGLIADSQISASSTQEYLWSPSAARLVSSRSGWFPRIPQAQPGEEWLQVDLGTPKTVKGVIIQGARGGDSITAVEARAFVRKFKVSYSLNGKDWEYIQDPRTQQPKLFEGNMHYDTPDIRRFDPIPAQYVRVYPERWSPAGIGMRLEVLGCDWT
In words: SPR (Biacore2000) binding to b1b2 domain of neuropilin-2. The conditions noted are these: for Kd: read-out: Binding affinity KD. On the procedure:
(§1) Specifically, each b1b2 domain of neuropilin-1 and -2 was diluted with 10 mM Na-acetate buffer (pH 4.0), and fixed onto CMS sensor chips (GE healthcare, USA) in about 1000 response units (RU). […] After bond and dissociation analysis, the regeneration of CMS chip was performed by streaming a buffer (20 Mm NaOH, 1 M NaCl, pH 10.0) at a stream velocity 30 μl/min for 1 minute.

The test system of data set [4] is HUVEC. In words: Transwell assay of vascular endothelial cell permeability. Format: cell-based, human. The conditions noted are these: single peptides and Fc-TPP 1 μM, 30 minutes. On the procedure:
Based on the above experimental results, as experiments for confirming the improvement of vascular endothelial cell permeability, single peptides and Fc-TPP were treated to conduct Transwell assay.
Specifically, HUVECs were seeded into Transwell plate (Corning) at a density of 5×10^4 per well in a upper chamber using Endothelial Growth Medium, PromoCell (EGM) medium, followed by incubation at 37° C. for 3 days under 5% CO2 condition. […] Thereafter, Dextran-FITC (Sigma) 50 μg was put into the upper chamber and the medium of the lower chamber was sampled to measure its fluorescence after 30 minutes, using the principle that a fluorescent substance is observed in the lower chamber when the permeability in HUVECs was improved.

In data set [5] the target is T2, NRP1-b1b2 (b1b2 domain of neuropilin-1) (Homo sapiens, UniProt O14786).
T2 construct: b1b2 domains (273-586) of neuropilin-1
T2 sequence (O14786 273-586): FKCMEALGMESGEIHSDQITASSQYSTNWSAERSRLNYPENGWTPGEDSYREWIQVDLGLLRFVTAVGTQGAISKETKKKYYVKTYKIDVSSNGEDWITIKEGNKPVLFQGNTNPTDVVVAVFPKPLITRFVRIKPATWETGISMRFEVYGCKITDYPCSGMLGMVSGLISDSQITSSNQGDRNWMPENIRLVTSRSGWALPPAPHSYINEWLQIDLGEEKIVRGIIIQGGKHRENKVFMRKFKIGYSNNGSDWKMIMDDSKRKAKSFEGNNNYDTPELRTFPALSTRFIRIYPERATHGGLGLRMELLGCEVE
Description: SPR (Biacore2000) binding to b1b2 domain of neuropilin-1. The conditions noted are these: NRP1-b1b2, SPR; for Kd: read-out: Binding affinity KD. As for the experimental part: as §1

In data set [6] the test system is b1b2 domains of neuropilin-1 and -2. In words: ELISA binding to b1b2 domains of neuropilin-1 and -2. The conditions noted are these: 100 nM (peptides 100 nM, 1 μM). As for the experimental part: The binding capacity of purified Fc-TPP to b1b2 domains of neuropilin-1 and -2 (neuropilin (NRP)1/2-b1b1 domain) was confirmed in Enzyme Linked Immunosorbent Assay (ELISA).
The target molecules, b1b2 domains (273-586) of neuropilin-1 and b1b2 domains (275-595) of neuropilin-2, and the control group VEGFR2 (46-753) were bound in an amount of 1 μg each in 96-well EIA/RIA plates (COSTAR Corning In., USA) at room temperature for 1 hour, and then washed three times for 10 minutes with 0.1% PBST (0.1% Tween20, pH 7.4, 137 mM NaCl, 10 mM Phosphate, 2.7 mM KCl, SIGMA-ALDRICH co., USA). After binding for 1 hour with 5% skim milk (pH 7.4, 137 mM NaCl, 10 mM Phosphate, 2.7 mM KCl, SIGMA-ALDRICH co., USA), it was washed three times for 10 minutes with 0.1% PBST (0.1% Tween20, pH 7.4, 137 mM NaCl, 10 mM Phosphate, 2.7 mM KCl, SIGMA-ALDRICH co., USA). […] After binding to alkaline phosphatase (AP)-conjugated anti-biotin mAb (Sigma, USA) and reacting with pnitrophenyl […] (pNPP, SIGMA-ALDRICH co., USA), absorbance at 405 nm was quantified. From the ELISA result obtained from 30 minute-reaction of AP-pNPP, the binding capacity of expressed and purified Fc-TPP to b1b2 domains of neuropilin-1 and -2 was confirmed.
A general note: ELISA stands for enzyme-linked immunosorbent assay.

Data set [7] concerns VE-cadherin in HUVEC. In words: Western blot of VE-cadherin in HUVEC. Format: cell-based, human. The conditions noted are these: single peptides and Fc-TPP 1 μM, 10 minutes. An excerpt:
During this process, a decrease in vascular endothelial (VE)-cadherin, phosphorylation, etc. of endothelial cells occur. That is, VE-cadherin or epithelial (E)-cadherin involves in adhesion between endothelial cells, while forming the base of adherent junction between endothelial cells and epithelial cells. The change in molecules relieve the density of adherent junction, which results in increasing permeability of blood vessels and improving intracellular permeability.
As an experimental method for indirectly confirming improvement of vascular permeability based thereon, a change in VE-cadherin was confirmed through a Western blot. Specifically, HUVECs were seeded into 6-well plates at a density of 3×10^5 per well, followed by incubation for 24 hours. Thereafter, single peptides and Fc-TPP were treated with 1 μM for 10 minutes to perform a Western blot. Gel subjected to SDS-PAGE was transported into PVDF membrane, a primary antibody (SantaCruz) and an HRP-conjugated secondary antibody (SantaCruz) which recognize VE-cadherin and (3-actin, respectively were used for detection. ImageQuant LAS4000 mini (GE Healthcare) was used for analysis.
(A western blot detects proteins with antibodies after separation by electrophoresis.)

For data set [8], the system named is A431 tumor. Description: IHC of Fc-TPP infiltration in A431 tumor tissue. Format: in vivo, Balb/c nude mice. The conditions noted are these: A431 xenograft, 5 mg/kg intravenously, 3 hours. As for the experimental part: 3 hours after injection, tumors were extracted from mice to conduct immunohistochemistry experiment. The extracted tumors were cut into 20 μm thick using a frozen section method, and stained with a primary antibody, CD31 antibody (BD Pharmingen), and a TRITC (red fluorescence)-conjugated secondary antibody. Further, in order to observe Fc-TPP distributed in the tissues, FITC (green fluorescence)-conjugated antibodies recognizing Fc were used.

In general, Kd refers to the free concentration of one partner at which half of the binding sites on the other are occupied at equilibrium, for simple one-to-one binding. One may read the koff as a measure of how fast the partners let go of each other. A low value points to a long-lived complex. What is called kon is the second-order rate constant of association. In data set [1], “Sema3F (19-779) (from UniProt Q13275) (ligand)” returned a Kd of 0.245 µM, a koff of 0.000973 s⁻¹ and a kon of 3980 M⁻¹ s⁻¹. Further, in data set [2], the Kd came out at 0.345 µM, the koff is 0.0015 s⁻¹ and the kon is 4340 M⁻¹ s⁻¹.

Take “Fc-4F22: Human IgG1 Fc with TPP 4F22 (SEQ ID NO: 8) fused to its C-terminus (GAGAREAPGAPRSPEPQDQKKPRNRR)”: in data set [3], the Association rate ka is given as 1.21 ± 0.15 × 10^2 M^−1s^−1, the Dissociation rate kd is 1.57 ± 0.40 × 10^−3 s^−1 and the Kd was 13 µM. For the same substance, the “permeability of HUVEC (Transwell, Dextran-FITC)” value (from here on “permeability of HUVEC”) in data set [4] was “permeability of HUVEC was not improved”. In addition, in data set [5], the Association rate ka was 2.18 ± 0.12 × 10^2 M^−1s^−1, the Dissociation rate kd was 2.25 ± 0.18 × 10^−3 s^−1 and the Kd worked out at 10.3 µM.

As for “F22p: F22 with Asn777Pro, SEQ ID NO: 4, REAPGAPRSPEPQDQKKPRPRR (F22p) [Clone F22p]”, the “permeability of HUVEC” value in data set [4] is on record as “permeability of HUVEC was not improved”. Also, in data set [6], the “binding to b1b2 domains of NRP-1 and -2 (ELISA, absorbance 405 nm)” value is reported as “stronger bond”.

For the substance “F22: Sema3F-derived 22 amino acid TPP, residues 758-779, SEQ ID NO: 3, REAPGAPRSPEPQDQKKPRNRR (F22) [Clone F22]”, the “permeability of HUVEC” value in data set [4] was “permeability of HUVEC was not improved”.

For the substance “A22p: A22 with Asn758Pro, SEQ ID NO: 2, HTPGNSNKWKHLQENKKGRPRR (A22p) [Clone A22p]”, the “change in VE-cadherin (Western blot)” value in data set [7] was “no change in VE-cadherin”. Besides, the “permeability of HUVEC” value in data set [4] is “improvement of vascular permeability was not induced”. For the same substance, the “binding to b1b2 domains of NRP-1 and -2 (ELISA, absorbance 405 nm)” value in data set [6] is recorded as “stronger bond”. Moreover, in data set [8], the “infiltration into tumor tissue (IHC)” value is “did not infiltrate into the tissues”.

For the substance “Fc-4A22: Human IgG1 Fc with TPP 4A22 (SEQ ID NO: 5) fused to its C-terminus (GAGAHTPGNSNKWKHLQENKKGRNRR)”, in data set [3], the Association rate ka is given as 6.09 ± 0.63 × 10^3 M^−1s^−1, the Dissociation rate kd is recorded as 1.23 ± 0.16 × 10^−1 s^−1 and the Kd is 20.2 µM. The “change in VE-cadherin (Western blot)” value in data set [7] is given as “VE-cadherin was not decreased”. Moreover, the “permeability of HUVEC” value in data set [4] is “improvement of vascular permeability was not induced”. Moreover, in data set [5], the Association rate ka is reported as 1.02 ± 0.14 × 10^3 M^−1s^−1, the Dissociation rate kd is 1.93 ± 0.05 × 10^−2 s^−1 and the Kd came to 18 µM.

Regarding “Fc-15F22: Human IgG1 Fc with (GGGGS)3-F22 (SEQ ID NO: 9) fused to its C-terminus (GGGGSGGGGSGGGGSREAPGAPRSPEPQDQKKPRNRR)”, in data set [3], the Association rate ka is on record as 1.05 ± 0.03 × 10^3 M^−1s^−1, the Dissociation rate kd is 1.30 ± 0.21 × 10^−2 s^−1 and the Kd turned out to be 12.4 µM. Also, in data set [4], the “permeability of HUVEC” value was “permeability of HUVEC was not improved”. In addition, in data set [5], the Association rate ka is 1.35 ± 0.24 × 10^3 M^−1s^−1, the Dissociation rate kd is recorded as 5.34 ± 0.24 × 10^−2 s^−1 and the Kd is 39.7 µM.

Turning to “VEGF165A (from UniProt P15692-4) (ligand)”, in data set [1], the Kd stood at 0.00351 µM, the koff is 0.00342 s⁻¹ and the kon is 975000 M⁻¹ s⁻¹. For the same substance, in data set [2], the Kd is 0.032 µM, the koff turned out to be 0.00373 s⁻¹ and the kon turned out to be 117000 M⁻¹ s⁻¹.

Take “A22: Sema3A-derived 22 amino acid TPP, residues 739-760, SEQ ID NO: 1, HTPGNSNKWKHLQENKKGRNRR (A22) [Clone A22]”: the “change in VE-cadherin (Western blot)” value in data set [7] was “no change in VE-cadherin”. Further, the “permeability of HUVEC” value in data set [4] is listed as “improvement of vascular permeability was not induced”. For the same substance, the “infiltration into tumor tissue (IHC)” value in data set [8] is reported as “did not infiltrate into the tissues”.

On to “Sema3A (26-760) (from UniProt Q14563) (ligand)”, for which, in data set [1], the dissociation constant Kd came to 0.0279 µM, the koff is 0.000808 s⁻¹ and the kon stood at 28900 M⁻¹ s⁻¹. In data set [2], this substance had a Kd of 0.231 µM, a koff of 0.00161 s⁻¹ and a kon of 6960 M⁻¹ s⁻¹.
